The values that follow come from a protein production outcome set (Wang et al. 2014).
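Further: failed if final PepcDB status was selected cloned or expressed and not failed if soluble or beyond.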

This series is described as follows: label from the status in PepcDB records.
Regarding “MATVEEIEKYCRNCVSRDFVNGKGLVCKRTRELPDFDEECENFEKDEELLKMAPPKPDDFPVSMTEEELLAEENLPKGVLYASVACILGAVAWSLISVSTGLQMGYMAIGVGFLVGFAMRQGKGIRPVFGLLGAALALISCVLGDFLSIIGFAAKDYDMTFFEVLAGVDYGEIFSVMVKNVVSMSALFYGIAVYEGYKLSFRAQKHPVGGKI”, the protein production entry is “failed”.

Regarding “MAPQSHGRSRINSIDMMRGLVMLIMLLDHVREQFFLHMQVSDPMDLSTTTWDLFVSRFAAHFCAPVFVFLTGVSAWLYANRGHGEPRSVRVFLLKRGLFLIALEVLVINFSWMGNYHTLWLQVIWVIGLSMLALAALIKLPRLWMALLGLLIVFGHNLLSPIHFEPDTWGYSLWTILHDRGYLIAEGDLKLKVSYPLLPWIGVILLGYVAGPLFSRKFEAWQRQQRLMLLGVGCFAFFCLLRGFNLYGETLPWQVGESIGQTLMSVFNLTKYPPSLSFLLVTLGGMFCGLVLFERYFAAGSLFSWIGQKLAVFGSVPMFFYILHLYVLLLLYLVAKGLFGANHGELFGVAHMGWVWLISLVLIPLLYYPVSWFSRYKSQSQQAWLKYL”, the protein production result is listed as “failed”.

For “NANLDPKTRVLEHRLLAASSAIAEKLGVSAGDEVLLIRRLRSTGDIPVAILENYLPPAFNDVSLDELEKGGLYDALRSRGVVLKIANQKIGARRAVGEESTLLDIEDGGPLLTVERVALDNSGQVIELGSHCYRPDMYNFETTLVAR”, the protein production entry is on record as “not failed”.

Turning to “MTKQSKTQIRICFVGDSFVNGTGDPECLGWTGRVCVNANKKGYDVTYYNLGIRRDTSSDIAKRWLQEVSLRLHKEYNSLVVFSFGLNDTTLENGKPRVSIAETIKNTREILTQAKKLYPVLMISPAPYIEQQDPGRRRRTIDLSQQLALVCQDLDVPYLDVFPLLEKPSVWLHEAKANDGVHPQAGGYTEFARIVENWDAWLNWFR”, the protein production result is on record as “not failed”.

In the case of “MIKFMSIASGSSGNCYYLSNGNQALLIDAGIPLRSISKALKDHQLPIEGNVVGVLVTHDHADHIRTIGCLGEKFHLPVFATERVHNGINSSRYMDHLPLLSRRNILQEETFRLAGFDITAFPIPHDATENVGYHITAPGFSFTLCTDVGHITDTISHYASKADYLVMEANYDCEMLLSGPYPEFLKERVSGPNGHLSNQETGDFLARTFHPGMKHVWLCHLSKDNNHPDLCWKSIEYRLFSEGIRVGKDMELTVLKRTSPSSLYTLLEDLEHHHHHH”, the protein production result is listed as “not failed”.

As for “MIELIIGAVLLSLLIYGIFIEPHLMKVRHVKIAQKQNLKIAHFTDTHFAWHTTSRRFKKFARNIANEQPDLIIFSGDLFDKVAWAKNRDWTDLLTILSELKAPLGKFAILGNHDFDDEKSSRFVEEFLEKAGFVLLKNSSVVKDNLSISGVDDWREGRPDFELEPIDATFSLLALHEPDTILDMETIKEFDLILSGHSHGGQIRIGNWRLRNKGSSSADAGLYQLNDRTKLYVNRGIGLTFLPIRFGVPPEIVYYYI”, the protein production result is recorded as “failed”.

On to “MDSSREANRKHDAEEKREDEKTSLMEVNLMVVLLSQLSTKKEDENGLEKERRDHVAHEARESRARANKRFMKDTKLMEKRTHVLQPMAKEFRHYRKM”, for which the protein production result is given as “failed”.

On to “MSGSLEIPGLDDGLLPVETGYGLFQGTAKKRVVICNDNDKFRHSGPLPRALCGSFAAIGLLPLPVVETRPAPPPKVAPITPALQGKACGQAVFEGLRNKNAVETVDNLPALRQTARTGKRWKALESLMQETPAIIYKIVPETLWTAARAEGMFEGAAIDLTDGFIHFSTAKQVAETAARHFSGQVDLLLIAVDGAALGDKLVYEPSRGGDLFPHLYAPLPFSAVLWETPLSLDHDGQHQFPEILLEHHHHHH”, for which the protein production result is “failed”.

“MKTVILIGALGKMGQAALTGLSKHKVITAGRSGNVDHLVDITNENSIRALYEKVGHFDAVVNTVGFCEYATFAEMTEAQWMTTVMSKMMGQINLVRIGQEYIADKGSFTLISGILNVKPIPCAIADATTSGAIDTFVKCVAYEMQRGTRINVVNPTVLTEAWDVYGDMMPGFEPVPSTLVGKAFERSVDGFINGEVLFVDALEHHHHHH”: the protein production result is “not failed”.

For “PVEEVMPVLEEKERSASYKPVFVTEITDDLHFYVQDVETGTQFQKLMENMRNDIASHPPVEGSYAPRRGEFCIAKFVDGEWYRARVEKVESPAKIHVFYIDYGNREVLPSTRLGTLSPAFSTRVLPAQATEYAFAFIQVPQDDDARTDAVDSVVRDIQNTQCLLNVEHLSAGCPHVTLQFADSKGDVGLGLVKEGLVMVEVRKEKQFQKVITEYLNAQESAKSARLNLWRYGDFRADDADEFGYSR”, the protein production result is “not failed”.

Take “MEKEMARLAAFDMDGTLLMPDHHLGEKTLSTLARLRERDITLTFATGRHALEMQHILGALSLDAYLITGNGTRVHSLEGELLHRDDLPADVAELVLYQQWDTRASMHIFNDDGWFTGKENPALLQAFVYSGFRYQIIDVKKMPLGSVTKICFCGDHDDLTRLQIQLYEALGERAHLCFSATDCLEVLPVGCNKGAALTVLTQHLGLSLRDCMAFGDAMNDREMLGSVGSGFIMGNAMPQLRAELPHLPVIGHCRNQAVSHYLTHWLDYPHLPYSPE”: the protein production entry was “failed”.

As to “MANNELQIAGSQGELRIRPYEHHAKYYETDQMGIIHHSNYVKWMEEARLDLMDQIGLNYRQMEDMEIISPVLSISVEYHSMVHFDDTVVIYTKLLKYNGIKMELEYVMKDKETGELRTTAKSSHCFLNKSGKPISLKRMYPELDTKFFEFKEA”, the protein production entry is “failed”.

Turning to “MANPPSQEADHLVEAFRYTVAKLFLQQAQKDHLKADKEAIFVLSELLLGYIEILTADLEAFCRHGKRTTITADDVLLCCRRNENLVSRHMLINRAAAEISSFP”, the protein production entry is on record as “failed”.

“MRVFFSTLAGLALALAAGGAVASGLGDADKGREVFRQCAFCHAVGEGAENGIGPHLNGVFGRAAGRIEGVQYSKSMIRMGNDGLIWTAQTLDAYIENPRALVSKTRMSFRGIKNEQERSDLMAYLRRYSDDPGNIPEAEPTATGTDHDLDPVILAIQGDPEYGEYLASECKTCHQTSGANDGIPGITQWPTEDFVVAMHAYKRKLRPHPVMQMMAGRLSNDEIAALAAYFQDLE”: the protein production result is recorded as “failed”.

Consider “MLKFRSHTKELLDGDAIPEKDLFQNLKELDTINKLLGGYKISLSAIDELIKNAAAYKLVDIGCGGGDTLKYMYHWAKRTDKNLSLVGIDIKPVCIEYAKTNTADLPIQYICDDYKQAFNHIEKIDFIHACLFCHHLSEEQLVELIQFALINKTTLVVNDLERNPIAYYSIKWLTAIFSHSYLVKNDAPLSVARGFKKKEWEALLKKAGAATYSVKNKWAFRHQVIVYGNQ”, for which the protein production result is reported as “failed”.

In the case of “MSVFAKVVELGSFTAAARQLQMSVSSISQTVAKLEDELQVKLLNRSTRSLGLTEAGKIYYQGCRRMLFEAQDVHEQLYAFNNTPIGTLRIGCSSTMAQNVLARITAKMLKEYPGLSVNLVTGIPAPDLIADGLDVVIRVGALQDSSLFSRRLGSMPMVLCAAKSYLAQAGNPEKPADLAGHAWLEYSVRPDNEFVIIAPEGISTRLTPQGRFVTNDPMTLVRWLTAGVGIAYVPLMWAIEEINRGELEILLPSYQSDPRPVYALYTEKDKLPLKVQVCINYLTEYFVDVAKIYQGMHGRGIAR”, the protein production result was “failed”.

As for “MSSPARSPSVGGATPKQGARTPTRGIASQDVETPMRMGPGRAVRPSDNISLPPTSPGNISLPATSPARGLGANMSEIDLSSPLNYGTPSSMGSIRTPRSGIRGTPLRARPDIRTDKRIRQVAIGGGSGLEPIPEKGSETTDPVSESSQAPQLVVWGTNVVVSQCKSKFKSFIMRFIDPSAEQDEISENIDVNQPLYLQKLEEIHTLEEPYLNLNCAHLKTFDQDLYRQLICYPQEVIPGFDMAINEMFFERYPAALLEHQIQVRPFNADKTRNMRSLNPEDMDQLISISGMVIRSSNVIPEMREAFFSCNICSFSTTVEVDRGRINQPTLCTNCNTNHCFRLIHNRSEFTDKQLVKLQESPDDMAAGQTPHNVLLYAHNDLVDKVQPGDRVTVTGIYRATPLKTGGLSSSVKSVYKTHVDVVHFRKVDNKRLYEDEEGKDHIFPPERVELLQLLAKKPDIYDRLARAIAPSIYENDDIKKGILLQLFGGTKKKHATLGRQNFRSEIHLLLCGDPGTSKSQMLQYVFNLVPRSQYTSGRGSSAVGLTAYVTKDPETRQLVLQTGALVLADNGVCCIDEFDKMNDSTRSVLHEVMEQQTLSIAKAGIICQLNARTSILAAANPAESQWNKRKNIIDNVQLPHTLLSRFDLIFLVLDPQDEIFDKRLASHLVSLYYVTRHEEEDTMFDMSVLRDYIAYAREHLSPTLSDEAQQRLIQAYVDMRKVGAGRGQISAYPRQLESLIRLSEAHAKVRLSNQVELLDVEEAWRLHREALKQSATDPLSGKIDVGILTTGLSTAARKKRADLVAAIKENLKKKGKVLTVPYQKLFSDIKEGSQIMITREQFEDALKEVQDEGAIVVMGKNTIRIC”, the protein production entry is listed as “failed”.

For the sequence “ILELIAKGKPASKIYAEIALMYEERHSGLRCSMLELKGGKLLHAGAPSLPKSYCKAVHGLEYGPQVGSCGTSTYTGKRVLVENIATDPKWADLKYVALPYGMRSCWSEPIKSSSGKVLGAFGMYHDYPALPNEQESNDLTSAARLAGIVMEREQNQKRIQ”, the protein production entry is given as “failed”.

On to “MSDVTGDLAAVSEAKGGSDAARISEVKAWLTSQFEAVGKEVPNFEYTHRSITHLYNLATASQAKSQAATIVANDFRLKASEYRAQAARIREILESAGMSQESLPSNVVSSAQVLANVANLLNIRDTELSRILAQLEDDVVPCESQMENWKTNLEVMAVKEEQYIQQYKKYEMLLNRVGYTPKISHRELVEMAEHRKELDKMTKPVLDTLRSYQDLPPDKALAALAIEDKKRQFTAAEKYLEEVLQSALETNDE”, for which the protein production entry is “failed”.

For “MRIVSRDRWFETRHFYNGISLIHEPYVRPFYRCNMWHVQGRERDVLVDSGSGLVSLCEQLPWLTERPLLAVASHTHFDHIAGHHEFAERLAHPAEAEILAAPDGDNTLARAYVGDEMFEAHPECPLCYAEYRVRAAPATRLIDEGDVLDLGDRVLQVLHTPGHSPGGISLWEAATQTLFSGDIVYDGPLVEDAYHSNLDDYASSLARLRELPVRTVHGGHFASFSGERLREMIVAWFRNHDR”, the protein production result is reported as “failed”.

“MKTIVIEDKQRIESIILQADACFVGITDLEGNPYVVPMNFGYENDTLYLHSGPEGGKIEMLQRNNNVCITFSLGHKLVYQHKQVACSYSMRSESAMCRGKVEFIEDMEEKRHALDIIMRHYTKDQFSYSDPAVRNVKVWKVPVDQMTGKVFGLRADEKP”: the protein production result is “not failed”.

As for “WPIWTRRSDGTLSFANAAYARATDASDAADAIGRNLELLDSGDRAALARALGDGYEYSGRLPIVVGGERRYYDVRALKVSGGSAGIAVDATETAALGAALERMADAHRRTLDQLSSGVAVFDAQRRLSFYNDSYRKLWDL”, the protein production result is “failed”.

On to “MSSACDAGDHYPLHLLVWKNDYRQLEKELQGQNVEAVDPRGRTLLHLAVSLGHLESARVLLRHKADVTKENRQGWTVLHEAVSTGDPEMVYTVLQHRDYHNTSMALEGVPELLQKILEAPDFYVQMKWEFTSWVPLVSRICPNDVCRIWKSGAKLRVDITLLGFENMSWIRGRRSFIFKGEDNWAELMEVNHDDKVVTTERFDLSQEMERLTLDLMKPKSREVERRLTSPVINTSLDTKNIAFERVFRVLKLTLLQLTVCS”, for which the protein production entry is listed as “failed”.

As for “MEEQVLGQSHDCETAADKSDQKLQDVTLAKTTHWGKIKAMLEEKIDELSQGLHRVASDNAALTRSLQERSEMIVKISEERSKAEADVEKLKD”, the protein production result is “failed”.
